{"source": "paper PMC9302186", "about": "“Defining variant-resistant epitopes targeted by SARS-CoV-2 antibodies: A global consortium study” (Science (New York, N.y.), 2021)", "binders": {"B1": {"name": "CoVIC-259 (antibody, V domains shown)", "VH": "EVQLVESGGGVVQPGRSLRLSCAASGFTFSSYAMHWVRQAPGKGLEWVAVLSYDGSNKYNADSVKGRFTISRDNSKNTLYLQMNSLRVEDTAMYYCARDGVSVTMVRGVIGPLCDYWGQGTLVTVSS", "VL": "not shown", "notes": "also called RBD-1 community representative"}}, "target": "T1, SARS-CoV-2 spike trimer (as imaged by NS-EM) (SARS-CoV-2, ancestral (Wuhan-Hu-1, …, UniProt P0DTC2))", "T1 construct": "also called spike trimers; spike protein", "assay": "negative-stain electron microscopy", "conditions": "both partners purified", "data": [{"binder": "B1", "values": [{"measurement": "binding result", "result": "binds"}]}]}
